US20230312739A1 (BIOTHEUS, published 2023)

T1: human CD73 on the cell surface (tumor cells endogenously expressing human CD73; CHOS-human CD73) (human, UniProt P21589 27-549)
T1 sequence: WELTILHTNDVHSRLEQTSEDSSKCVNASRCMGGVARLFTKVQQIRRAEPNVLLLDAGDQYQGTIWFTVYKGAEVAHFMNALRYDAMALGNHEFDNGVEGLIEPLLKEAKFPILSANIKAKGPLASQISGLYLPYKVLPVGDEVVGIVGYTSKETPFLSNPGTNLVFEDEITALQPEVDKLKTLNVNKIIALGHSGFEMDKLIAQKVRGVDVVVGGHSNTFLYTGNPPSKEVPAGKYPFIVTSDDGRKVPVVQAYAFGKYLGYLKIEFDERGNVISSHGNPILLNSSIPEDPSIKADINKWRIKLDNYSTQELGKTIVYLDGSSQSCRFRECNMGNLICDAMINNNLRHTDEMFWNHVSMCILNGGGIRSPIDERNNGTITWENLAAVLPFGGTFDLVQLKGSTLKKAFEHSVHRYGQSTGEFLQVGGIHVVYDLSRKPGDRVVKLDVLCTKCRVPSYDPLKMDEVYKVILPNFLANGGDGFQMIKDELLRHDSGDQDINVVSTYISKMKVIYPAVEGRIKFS

T2: recombinant human CD73 protein (Baiying Bio) (human, UniProt P21589 27-549)
T2 construct: Bought protein; also called soluble recombinant CD73; soluble human CD73 protein
T2 sequence: T1 sequence

B1: humanized antibody 7002-01 (antibody, human IgG1, kappa, V domains shown)
VH: QVQLQESGPGLVKPSQTLSLTCTVSGYSITSGYDWHWIRQHPGKGLEWMGYISYSGYTDYNPSLKSRITISHDTSKNQFSLKLSSVTAADTAVYYCTRGDHSYAMDYWGQGTLVTVSS
VL: AIQMTQSHSSLSASVGDRVTITCKASQAVGTAVAWYQQKPGKSPKLLIYWASSRHTGVPSRFSGSRSGTDFTLTISSLQPEDFATYFCQQYSSYPLTFGGGTKVEIKR

Assays:
[1] = molecular target: CD73 on cynomolgus macaques CD3+CD8+ T cells (cynomolgus macaques); experiment: flow cytometry on cynomolgus macaque PBMC, CD3+CD8+ T cells, donor 1300M
[2] = molecular target: CD73 on cynomolgus macaques CD3+CD8+ T cells (cynomolgus macaques); experiment: flow cytometry on cynomolgus macaque PBMC, CD3+CD8+ T cells, donor 1132F
[3] = molecular target: T1, human CD73 on the cell surface (tumor …); experiment: cell-based or functional assay
[4] = molecular target: T2, recombinant human CD73 protein (Baiying …); experiment: ELISA, 1 ug/ml recombinant human CD73 coated, HRP-coupled anti-IgG Fc secondary antibody, OD450
Experimental: 1 μg/ml recombinant human CD73 protein (Baiying Bio, recombinant human CD73 protein) was coated on an ELISA plate in PBS for overnight at 4° C. The plate was washed 3 times with washing buffer (PBS, 0.05% Tween-20), and non-specific sites were blocked by adding 200 μl/well PBS+2% BSA. 100 μL of the anti-CD73 antibody in a dose range of gradient dilution was added to the ELISA plate coated with the antigen, and incubated at 37° C. for 1 h. The plate was washed 3 times in washing buffer, and HRP-coupled goat anti-human or goat anti-mouse IgG Fc fragment secondary antibody was added for 1 h at room temperature to detect the captured anti-CD73 antibody. […] The enzymatic reaction was stopped by adding 1M sulfuric acid solution, and the light absorption was measured at 450 nm. The graph was plotted with the absorbance value on the ordinate and the log value of antibody concentration on the abscissa, and the EC50 was calculated using GraphPad Prism software.

[5] = molecular target: T1, human CD73 on the cell surface (tumor …); experiment: flow cytometry, MFI, A375 cells expressing human CD73
Experimental: (§1) 500,000 CD73-expressing cells (see Example 2) were placed in 100 μL of FACS buffer (PBS+2% FBS)/well for later use in a round-bottom low adsorption 96-well plate. The antibody sample was subjected to serial 3-fold dilutions at 12 points by diluting ½ of the total volume (100 μL) in 200 μL of FACS buffer. 100 μL of the diluted antibody was added to each well of the cell plate, 100 μL of FACS buffer was added to the corresponding negative control well, and incubation was performed at 4° C. for 1 hour. […] After staining, the supernatant was removed by centrifugation, washing was performed twice with FACS buffer, and 100 μL of FACS buffer was added to each well to resuspend the cells, and then reading was performed on flow cytometry. The cells in the plate were measured using a flow cytometer (BD, model ACCURI C6 PLUS). During the measurement, the cells were first gated according to FCS and SSC, and then analyzed by the green fluorescence channel (FITC) corresponding to the secondary antibody and SSC. GraphPad was used for data analysis, wherein the abscissa indicated the logarithm of antibody concentration, the ordinate indicated mean fluorescence intensity, and the EC50 value of the anti-CD73 antibody was obtained by curve fitting.

[6] = molecular target: T2, recombinant human CD73 protein (Baiying …); experiment: SPR, Biacore T200 at 25 C, antibody captured on Protein A chip, CD73 protein as analyte, 1:1 model
Experimental: The antibody was diluted with running buffer 1*HBS-EP+ to 1 μg/ml, and was captured onto the chip surface (Protein A chip, GE, Cat #29127556) at a flow rate of 10 μl/min for 30 s. Then, a series of concentrations of CD73 protein (Baiying Bio, recombinant human CD73 protein) were injected into antibody channel at a flow rate of 30 μl/min, for association of 180 s, followed by dissociation for 900 s. 10 mM pH 1.5 Gly-HCl was used for regeneration. The sensorgram data was fitted using a 1:1 dynamic binding model.

[7] = molecular target: T1, human CD73 on the cell surface (tumor …); experiment: flow cytometry, MFI, MDA-MB-231 cells expressing human CD73
Experimental: as §1

Row | Molecule | MFI FC (fold change of mean fluorescence intensity) [1] [fold] | MFI FC (fold change of mean fluorescence intensity) [2] [fold] | IC50 of antibody inhibiting enzymatic activity of CD73 on surface of A375 cells (AMP/ATP CellTiter-Glo) [3] [µg/mL] | IC50 of antibody inhibiting enzymatic activity of CD73 on surface of MDA-MB-231 cells (AMP/ATP CellTiter-Glo) [3] [µg/mL] | EC50 (read off the curve) [4] [µg/mL] | EC50 [5] [µg/mL] | Kd [6] [nM] | koff [6] [s⁻¹] | kon [6] [M⁻¹ s⁻¹] | EC50 [7] [µg/mL]
1 | Isotype control (IgG1-TM) (antibody) | 1 | 1.2 | – | – | – | – | – | – | – | –
2 | B1 | – | – | 0.26 | 1 | ~0.008 | 0.6 | 0.21 | 6.24e-05 | 297000 | 0.99
